What all share (type): biochemical
In assay [1] the target is T1, purified signal-FLAG-ARS-extracellular enzyme after the treatment with trypsin beads (Homo sapiens, UniProt Q7Z410, INS90FVSSFQKTELEASCVGCSVLNYRDGNSSVLVHFQ).
T1 construct: FLAG (N); made in house; host or cells: HEK293-EBNA
T1 sequence (Q7Z410 with tags, fused parts or gaps): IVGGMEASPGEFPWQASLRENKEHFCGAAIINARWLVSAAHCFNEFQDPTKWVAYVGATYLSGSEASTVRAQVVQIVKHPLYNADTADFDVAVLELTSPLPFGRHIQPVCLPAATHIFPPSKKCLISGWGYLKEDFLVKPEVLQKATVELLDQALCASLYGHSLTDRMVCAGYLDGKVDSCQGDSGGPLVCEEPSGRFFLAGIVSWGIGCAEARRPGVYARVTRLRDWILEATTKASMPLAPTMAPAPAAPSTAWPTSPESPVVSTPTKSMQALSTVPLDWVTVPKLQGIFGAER
T1 sequence (Q7Z410 with tags, fused parts or gaps INS90FVSSFQKTELEASCVGCSVLNYRDGNSSVLVHFQ): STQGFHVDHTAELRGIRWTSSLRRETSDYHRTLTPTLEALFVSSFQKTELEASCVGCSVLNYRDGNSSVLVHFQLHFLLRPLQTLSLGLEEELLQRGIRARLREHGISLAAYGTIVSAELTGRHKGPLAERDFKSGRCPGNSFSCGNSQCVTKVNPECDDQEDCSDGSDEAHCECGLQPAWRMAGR
In words: Detection of enzyme activity using physiologically active peptides (HPLC). Conditions: peptide 0.1 mM in 100 mM ammonium hydrogen carbonate pH 8, 37° C. for 16 hours; versus buffer control. As for the experimental part: The purified signal-FLAG-ARS-extracellular enzyme after the treatment with trypsin beads in the same manner as in the method of Example 9 was used as an enzyme sample and was mixed with the following physiologically active peptides for reaction at 37° C. for 16 hours, to detect the enzyme activity. As a control without addition of enzyme, an ammonium hydrogen carbonate buffer was used. The peptides were adjusted to 0.1 mM in 100 mM ammonium hydrogen carbonate solution of pH 8. The peptides used were adenocorticotropic hormone (ACTH), angiotensin 1-13, angiotensin 1-14, angiotensin 1-7, angiotensin 1-9, angiotensin 3-7, angiotensin 3-8, angiotensin I, angiotensin II, angiotensin III, A-type natriuretic peptide (ANP), apelin 13, apelin 36, big gastrin, B-type natriuretic peptide 32 (BNP 32), bradykinin, benzoyl-Gly-His-Leu, chymostatin, C-type natriuretic peptide 22 (CNP 22), arginine-deficient bradykinin (Des-Arg-bradykinin), leucine-terminal enkephalin (Leu-enkephalin), methionine-terminal enkephalin (Met-enkephalin), growth hormone (GH), gastric inhibitory peptide (GIP), glucagon-like peptide 1 (GLP-1), glucagon-like peptide 2 (GLP-2), glucagon, growth hormone releasing factor (GRF), insulin, luteinizing hormone releasing hormone (LH-RH), melanin-concentrating hormone (MCH), α-melanocyte stimulating hormone (α-MSH), motilin, neurotensin, neuropeptide Y (NPY), oxytosin, pituitary adenylate cyclase activating polypeptide 38 (PACAP38), prolactin-releasing peptide (PrRP31), pyroglutamic apelin 13 (Pyr-apelin 13), secretin, somatostatin, substance P, [D-Argl, D-Pro2,D-Trp7,9, Leul1]-substance P, [D-Pro2,D-Trp7,9]-substance P, urotensin II, or vasoactive intestinal peptide (VIP) (all from Peptide Institute, Inc.). The cleavage of the substrate peptides was confirmed by analyzing and comparing the reaction of a sample with the enzyme solution to with that of a sample with added ammonium hydrogen carbonate buffer instead of the enzyme, by high-performance liquid chromatography (HPLC) (LC-10AS manufactured by Shimadzu Co., Ltd.).
TSK-gel ODS-80 Ts column, manufactured by TOSOH
Column temperature: 40° C.
Measurement wavelength: 220 nm
Compositions of solvent solutions
Solution A: 10 mM potassium dihydrogen phosphate buffer, pH 7.4 to 8.0
Solution B: mixture solution of 90% acetonitrile: 10% ultra-pure water

The target in assay [2] is T2, purified protein solution (signal-FLAG-ARS-extracellular protein) (Homo sapiens, UniProt Q7Z410, INS90FVSSFQKTELEASCVGCSVLNYRDGNSSVLVHFQ).
T2 construct: made in house; host or cells: HEK293-EBNA
T2 sequence (Q7Z410 with tags, fused parts or gaps INS90FVSSFQKTELEASCVGCSVLNYRDGNSSVLVHFQ): T1 sequence (Q7Z410 with tags, fused parts or gaps INS90FVSSFQKTELEASCVGCSVLNYRDGNSSVLVHFQ)
T2 sequence (Q7Z410 with tags, fused parts or gaps): T1 sequence (Q7Z410 with tags, fused parts or gaps)
In words: Enzyme activity of purified recombinant protein using synthetic peptides. Conditions: substrate 200 μM or 400 μM, ammonium hydrogen carbonate buffer, 37° C. for one hour; versus buffer control. The procedure: Using a cell expressing the signal-FLAG-ARS-extracellular protein, a recombinant protein secreted into the liquid culture of the cell was extracted and purified. Specifically, the transfected HEK293EBNA cells were incubated by the same method as in Example 7 to about 80% confluence, from which the culture medium was then removed. Instead, a culture medium containing 4% serum was added, for further incubation under conditions of 37° C. and a carbon dioxide concentration of 5% for another 4 days. The culture supernatant was recovered 4 days later; filtered through a 0.22-μm filter (Zartor); and adsorbed on an ANTI-FLAG M2-AGAROSE AFFINITY GEL (Sigma) column equilibrated with TBS buffer by a routine method. Subsequently, about 50 ml of the TBS buffer was used for washing the column. Then, 6 ml of […] glycine hydrochloride solution of pH 2.2 was passed through the column to obtain each 1 ml fraction. To the separated fractions, 100 μl of 1 M Tris-HCl of pH 8 was immediately added to adjust the pH. The individual fractions thus obtained were confirmed by Western blotting using an antibody against the FLAG tag added to the N terminus (mouse anti-FLAG monoclonal antibody M2; Sigma). Specifically, the eluted fractions were electrophoresed on SDS/4% to 20% acrylamide gel (Daiichi Pure Chemicals Co., Ltd.) (under reducing conditions) and then transferred on PVDF membrane (Millipore) using a blotting apparatus. After adding Block Ace (DAINIPPON PHARMACEUTICAL CO., LTD.) for blocking to the transferred PVDF membrane, a biotinylated mouse anti-FLAG monoclonal antibody (M2; Sigma) and horseradish peroxidase-labeled streptoavidin (Amersham Pharmacia) were sequentially reacted. After reaction, it was confirmed that which eluted fractions contained the protein, using ECL Western blotting detection system (Amersham Pharmacia).
Using a synthetic peptides which have the C terminus labeled wit MCA (4-methyl-coumaryl-7-amide) by the same method as in Example 8, the cleavage activity of the enzyme purified in Example 10 was detected. Unless otherwise described, the method described in a paper (Yasuoka, S. et al., Am. J. Respir. Cell Mol Biol., Vol. 16, 300-308, 1997) was used. Specifically, using a synthetic peptides (Peptide Institute, Inc.) which have the C terminus labeled with MCA as substrates, the substrates were diluted with ammonium hydrogen carbonate buffer to become a final concentration of 200 μM or 400 μM in a 96-well plate. After the purified protein solution obtained in Example 10 or the ammonium hydrogen carbonate buffer as a control was added to the substrate solutions, the resulting mixtures were incubated at 37° C. for one hour. Subsequently, the fluorescence of AMC (7-amino-4-methyl-coumarin) released from the synthetic peptide by enzymatic cleavage was measured at a wavelength of 460 nm for measurement, using an excitation wavelength of 390 nm with a fluorescent plate reader (SAFIRE manufactured by TECAN). In FIG. 1, the open bar expresses buffer control, while the solid bar expresses the case of using purified protein solution. The first bar represents the case of using Boc-Glu(OBzl)-Ala-Arg-MCA as a substrate; the second bar represents the case of using Boc-Phe-Ser-Arg-MCA as a substrate; the third bar represents the case of using Boc-Leu-Ser-Thr-Arg-MCA as a substrate; the fourth bar represents the case of using Boc-Gln-Arg-Arg-MCA as a substrate; the fifth bar represents the case of using Suc-Ala-Ala-Pro-Phe-MCA as a substrate; the sixth bar represents the case of using Suc-Ala-Pro-Ala-MCA as a substrate; the seventh bar represents the case of using Boc-Glu-Lys-Lys-MCA as a substrate; the eighth bar represents the case of using Boc-Leu-Lys-Arg-MCA as a substrate; the ninth bar represents the case of using Boc-Leu-Gly-Arg-MCA as a substrate; and the tenth bar represents the case of using Boc-Asp(OBzl)-Pro-Arg-MCA as a substrate.

Assay [3] concerns the target T3, enzyme solution treated with trypsin beads (purified signal-FLAG-ARS-extracellular protein) (Homo sapiens, UniProt Q7Z410, INS90FVSSFQKTELEASCVGCSVLNYRDGNSSVLVHFQ).
T3 construct: FLAG (N); made in house; host or cells: HEK293-EBNA
T3 sequence (Q7Z410 with tags, fused parts or gaps): T1 sequence (Q7Z410 with tags, fused parts or gaps)
T3 sequence (Q7Z410 with tags, fused parts or gaps INS90FVSSFQKTELEASCVGCSVLNYRDGNSSVLVHFQ): T1 sequence (Q7Z410 with tags, fused parts or gaps INS90FVSSFQKTELEASCVGCSVLNYRDGNSSVLVHFQ)
Nature of the assay: Substrate cleavage activity of purified protein solution treated with trypsin beads. Conditions: substrate 400 μM, ammonium hydrogen carbonate buffer, 37° C. for one hour. As for the experimental part: By the same method as in Example 9, an enzyme solution treated with trypsin beads was obtained, using the purified protein solution. Then, the substrate cleavage activity of the enzyme solution was measured by the same method as in Example 8. Specifically, synthetic peptide substrates were diluted in ammonium hydrogen carbonate buffer to become a final concentration of 400 μM in a 96-well plate. After the enzyme solution described above was mixed into the resulting diluted substrates, the mixture were incubated at 37° C. for one hour. Subsequently, the fluorescence of AMC released from the synthetic peptide by enzymatic cleavage were measured.

*: point of attachment. AMC = Cc1cc(=O)oc2cc(N*)ccc12; Boc = CC(C)(C)OC(=O)*; OBn = c1ccc(CO*)cc1

For the substance “α-melanocyte stimulating hormone [α-MSH]”, in assay [1], the “cleavage of physiologically active peptide by enzyme sample (HPLC)” value is given as “selectively cleaved”.

Regarding Boc-Leu-Lys-Arg-{AMC}, the “cleavage of synthetic peptide by purified protein solution (fluorescence of released AMC)” value in assay [2] was “cleaved”. Moreover, the “cleavage of synthetic peptide by enzyme solution treated with trypsin beads (fluorescence of released AMC)” value in assay [3] was “cleaved”.

For neuropeptide Y [NPY], the “cleavage of physiologically active peptide by enzyme sample (HPLC)” value in assay [1] was “selectively cleaved”.

Take Boc-Leu-Gly-Arg-{AMC}: the “cleavage of synthetic peptide by purified protein solution (fluorescence of released AMC)” value in assay [2] is “cleaved”. Also, in assay [3], the “cleavage of synthetic peptide by enzyme solution treated with trypsin beads (fluorescence of released AMC)” value was “cleaved”.

For the substance A-type natriuretic peptide [ANP], in assay [1], the “cleavage of physiologically active peptide by enzyme sample (HPLC)” value is reported as “selectively cleaved”.

“Boc-Leu-Ser-Thr-Arg-MCA (Boc-LSTR-{AMC}; SMILES Cc1cc(=O)oc2cc(NC(=O)[C@H](CCCNC(=N)N)NC(=O)[C@@H](NC(=O)[C@H](CO)NC(=O)[C@H](CC(C)C)NC(=O)OC(C)(C)C)[C@@H](C)O)ccc12) [synthetic peptide substrate labeled with MCA at the C terminus]”: the “cleavage of synthetic peptide by purified protein solution (fluorescence of released AMC)” value in assay [2] is on record as “cleaved”. Further, in assay [3], the “cleavage of synthetic peptide by enzyme solution treated with trypsin beads (fluorescence of released AMC)” value is “cleaved”.

Consider Boc-Asp(OBn)-Pro-Arg-{AMC}, for which the “cleavage of synthetic peptide by purified protein solution (fluorescence of released AMC)” value in assay [2] is recorded as “cleaved”. Besides, in assay [3], the “cleavage of synthetic peptide by enzyme solution treated with trypsin beads (fluorescence of released AMC)” value is “cleaved”.

Take melanin-concentrating hormone [MCH]: in assay [1], the “cleavage of physiologically active peptide by enzyme sample (HPLC)” value was “selectively cleaved”.

As to vasoactive intestinal peptide [VIP], the “cleavage of physiologically active peptide by enzyme sample (HPLC)” value in assay [1] was “selectively cleaved”.

Take Boc-Glu-Lys-Lys-{AMC}: the “cleavage of synthetic peptide by purified protein solution (fluorescence of released AMC)” value in assay [2] was “cleaved”. Moreover, the “cleavage of synthetic peptide by enzyme solution treated with trypsin beads (fluorescence of released AMC)” value in assay [3] is “cleaved”.

For the substance C-type natriuretic peptide 22 [CNP], the “cleavage of physiologically active peptide by enzyme sample (HPLC)” value in assay [1] is “selectively cleaved”.

(Values after US20060134719A1, “Novel serine protease” (priority 2002, published 2006).)
